Source: article doi:10.1101/2025.06.16.659985, “Dynamic assembly of malate dehydrogenase-citrate synthase multienzyme complex in the mitochondria” (bioRxiv, 2025)

T1: recombinant yeast MDH1, fluorescently labeled (yeast (Saccharomyces cerevisiae), UniProt P17505 18-334, labeled with Protein Labeling Kit RED-NHS 2nd Generation (NanoTemper))
T1 chain: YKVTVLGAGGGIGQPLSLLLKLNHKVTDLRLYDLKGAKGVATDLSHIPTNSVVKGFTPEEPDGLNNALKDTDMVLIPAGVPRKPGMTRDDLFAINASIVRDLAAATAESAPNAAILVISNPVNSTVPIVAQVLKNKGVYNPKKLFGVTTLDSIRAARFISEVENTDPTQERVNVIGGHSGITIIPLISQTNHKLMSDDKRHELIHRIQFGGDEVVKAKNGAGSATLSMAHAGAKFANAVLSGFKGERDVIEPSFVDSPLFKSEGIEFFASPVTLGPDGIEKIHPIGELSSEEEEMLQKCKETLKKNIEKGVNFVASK

T2: recombinant yeast CIT1 (yeast (Saccharomyces cerevisiae), UniProt P00890 38-479)
T2 construct: citrate synthase CIT1, mitochondrial, yeast (Saccharomyces cerevisiae); also called recombinant CIT1; source: recombinant; produced according to the Supplementary Methods
T2 sequence (looked up): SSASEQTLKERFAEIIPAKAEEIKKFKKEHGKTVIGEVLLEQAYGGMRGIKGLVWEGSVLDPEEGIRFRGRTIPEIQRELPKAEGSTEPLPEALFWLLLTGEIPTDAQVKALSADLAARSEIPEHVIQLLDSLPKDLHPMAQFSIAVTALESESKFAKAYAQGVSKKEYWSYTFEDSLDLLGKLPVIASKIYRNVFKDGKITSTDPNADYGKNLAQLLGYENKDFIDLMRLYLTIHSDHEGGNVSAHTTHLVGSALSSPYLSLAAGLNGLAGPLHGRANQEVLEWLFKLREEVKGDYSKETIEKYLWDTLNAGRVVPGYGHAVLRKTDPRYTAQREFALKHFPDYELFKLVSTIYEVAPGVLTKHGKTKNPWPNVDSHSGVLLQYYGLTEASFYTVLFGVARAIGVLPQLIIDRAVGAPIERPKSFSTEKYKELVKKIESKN

B1: recombinant yeast CIT1 (enzyme)
chain: SSASEQTLKERFAEIIPAKAEEIKKFKKEHGKTVIGEVLLEQAYGGMRGIKGLVWEGSVLDPEEGIRFRGRTIPEIQRELPKAEGSTEPLPEALFWLLLTGEIPTDAQVKALSADLAARSEIPEHVIQLLDSLPKDLHPMAQFSIAVTALESESKFAKAYAQGVSKKEYWSYTFEDSLDLLGKLPVIASKIYRNVFKDGKITSTDPNADYGKNLAQLLGYENKDFIDLMRLYLTIHSDHEGGNVSAHTTHLVGSALSSPYLSLAAGLNGLAGPLHGRANQEVLEWLFKLREEVKGDYSKETIEKYLWDTLNAGRVVPGYGHAVLRKTDPRYTAQREFALKHFPDYELFKLVSTIYEVAPGVLTKHGKTKNPWPNVDSHSGVLLQYYGLTEASFYTVLFGVARAIGVLPQLIIDRAVGAPIERPKSFSTEKYKELVKKIESKN
B2: recombinant yeast MDH1, fluorescently labeled (enzyme, yeast (Saccharomyces cerevisiae), UniProt P17505 18-334, looked up)
chain: YKVTVLGAGGGIGQPLSLLLKLNHKVTDLRLYDLKGAKGVATDLSHIPTNSVVKGFTPEEPDGLNNALKDTDMVLIPAGVPRKPGMTRDDLFAINASIVRDLAAATAESAPNAAILVISNPVNSTVPIVAQVLKNKGVYNPKKLFGVTTLDSIRAARFISEVENTDPTQERVNVIGGHSGITIIPLISQTNHKLMSDDKRHELIHRIQFGGDEVVKAKNGAGSATLSMAHAGAKFANAVLSGFKGERDVIEPSFVDSPLFKSEGIEFFASPVTLGPDGIEKIHPIGELSSEEEEMLQKCKETLKKNIEKGVNFVASK
modifications: labeled with Protein Labeling Kit RED-NHS 2nd Generation (NanoTemper)
notes: malate dehydrogenase MDH1, mitochondrial, yeast (Saccharomyces cerevisiae); also called recombinant MDH1; labeled MDH1; source: recombinant; produced according to the Supplementary Methods

Experiments:
[1] = molecular target: T1, recombinant yeast MDH1, fluorescently …; assay: MST; pH 6.8
[2] = molecular target: T1, recombinant yeast MDH1, fluorescently …; assay: MST; 10 mM fumarate
[3] = molecular target: T1, recombinant yeast MDH1, fluorescently …; assay: MST; 10 mM malate
[4] = molecular target: T1, recombinant yeast MDH1, fluorescently …; assay: MST; control (no metabolite)
recombinant yeast CIT1 [5] = molecular target: T2, recombinant yeast CIT1; assay: MST; labeled MDH1 as target, CIT1 titrated (two-fold dilutions of 80 μM, 16 concentrations), Monolith NT.115, room temperature; buffer pH 6.0; details: both partners purified
recombinant yeast CIT1 [6] = molecular target: T2, recombinant yeast CIT1; assay: MST; labeled MDH1 as target, CIT1 titrated (two-fold dilutions of 80 μM, 16 concentrations), Monolith NT.115, room temperature; buffer pH 7.2; details: both partners purified
recombinant yeast CIT1 [7] = molecular target: T2, recombinant yeast CIT1; assay: MST; labeled MDH1 as target, CIT1 titrated (two-fold dilutions of 80 μM, 16 concentrations), Monolith NT.115, room temperature; buffer pH 6.4; details: both partners purified

Binder	Kd [1]	Kd [2]	Kd [3]	Kd [4]	Kd (recombinant yeast CIT1 [5])	Kd (recombinant yeast CIT1 [6])	Kd (recombinant yeast CIT1 [7])
B1	2720 nM	288 nM	367 nM	6070 nM			
B2					33 nM	3480 nM	223 nM
